Article PMC2955668

Legend:
[1] = molecular target: SIV_(MAC239)-HFNef (SIVmac239); test: co-IP; membrane-associated protein fraction of co-transfected 293T cells, solubilised in Buffer B plus 0.5% IGEPAL CA-630; anti-HA monoclonal antibody precipitates the HF-tagged Nef, untagged Nef detected by Western blot; fractional dimerization (FD) estimated from band densities assuming strict dimers and a binomial distribution
[2] = molecular target: SF2-HFNef (HIV-1 (SF2)) (UniProt P03407); test: as above
Sequence of UniProt P03407 (P03407 whole entry): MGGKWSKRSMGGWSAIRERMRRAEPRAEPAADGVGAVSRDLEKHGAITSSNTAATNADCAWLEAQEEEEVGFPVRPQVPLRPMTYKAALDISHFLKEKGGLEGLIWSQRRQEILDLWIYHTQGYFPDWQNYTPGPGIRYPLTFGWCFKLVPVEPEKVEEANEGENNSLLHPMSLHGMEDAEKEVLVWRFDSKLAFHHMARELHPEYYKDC

[3] = molecular target: NA7-HFNef (HIV-1 (NA7)); test: as above
[4] = molecular target: SF2-HFNef (HIV-1 (SF2)) (UniProt P03407); test: co-IP; cytosolic (soluble, high speed supernatant) fraction of co-transfected 293T cells in Buffer B; anti-HA monoclonal antibody precipitates the HF-tagged Nef, untagged Nef detected by Western blot; FD estimated from band densities
[5] = molecular target: NA7-HFNef (HIV-1 (NA7)); test: as above

Row | Substance | fractional dimerization (FD) [1] | fractional dimerization (FD) [2] | fractional dimerization (FD) [3] | fractional dimerization (FD) [4] | fractional dimerization (FD) [5]
1 | SIV_(MAC239)Nef (natural protein) | 0.37 |  |  |  | 
2 | NA7Nef (natural protein) |  | 0.48 | 0.52 | 0.23 | 0.35
